Data from patent US12686712B2, “Antibody, related use, pharmaceutical composition including method for diagnosing fungal infections, fungal infection diagnosis kit and method for treating fungal infections” (priority 2020, dated 2026).

How the values were obtained:
C. neoformans (H99) = assay: Indirect ELISA against intact cells using poly-L-Lysine (PL); format: binding, Cryptococcus neoformans; conditions: 10^4 and 10^5 cells/ml
Method: For this test, C. neoformans (H99), Candida albicans, Giardia lamblia, human lung line cell A549 (ATCC), Escherichia coli and Staphylococcus aureus. Cells were washed in PBS three times and suspended at 10^7 cell/ml density in poly-L-Lysine (5 μg/ml in PBS) for adherence at night at 4° C. The next day, plates were blocked with PBS/BSA 5% and incubated for 1 hour at 37° C., then they are incubated for 1 hour at 37° C. with anti-chitooligomer AcM at 50 μg/ml concentration and diluted at 5 μg/ml. Then, washing with PBS/Tween 0.05% was performed for 3 times and anti-IgM murine peroxidase was added diluted 1:5000 and incubated for 2 hours at 37° C. Plates were washed again and TMB was added and incubated for 30 minutes at 37° C.
Reaction was stopped with HCl 1 N and reading with spectrophotometer at 450 nm. After this trial, seriated dilutions were performed at density of cells 10^7 until 10 cells/ml to fungi and 10^7 until 10^4 cells/ml to other cellular types and tested of AcM anti-chitooligomer at 25 μg/ml concentration, followed by the same procedures abovementioned. […]
In this trial, 10^7 cell/ml of C. albicans were used to perform an absorbance curve, in which it was observed that there was a 25 μg/ml concentration reliable signal of both AcM, as above such value the curve starts to enter in plateau, as provided in FIG. 9. […]

[1] = system: acapsular mutant of C. neoformans Cap67; assay: Biofilm development, XTT reduction trial; format: cell-based, Cryptococcus neoformans; conditions: AcM 25 μg/ml, 48 hours at 37° C., vs fungus without treatment, p<0.05
Method: C. neoformans (H99 and Cap67) and Candida albicans were cultivated in Sabouraud media for 24 hours at 30° C. Cellular suspensions were centrifuged for 5 minutes at 3000 g, washed 3 times in PBC and suspended in minimum media (20 mg/ml thiamin, 30 mm glucose, 26 mM glycine, 20 mM MgSO4, and 58.8 mM KH2PO4). Then, they were added to 96-well plates (100 μl/well—1×10^6 células/ml) and cultivated for 48 hours at 37° C. at presence of AcM (HC6/DD11 and AF1/CC5) and AcM anti-GXM 18B7 (only to H99) at 25 μg/ml concentration, keeping under agitation for 30 minutes, for AcM total homogenization with fungi. As control, drug AmB was used at 1 μg/ml concentration.
Two analysis systems were performed: in the first, cells were washed, so that non-adhering cells were removed and only cells bonded to biofilm under development remained; in the second system, cells were not washed and all cells adhered or not to substrate were quantified.
Viable cell metabolic activity in both trials was assessed by the method based on decrease of XTT (2-methoxy-4-nitro-5-sulfophenyl)-5-[(phenylamino) carbonyl]-2H-tetrazolium hydroxide) in spectrophotometer at 492 nm of wavelength.
AcMs were tested (25 μg/ml) against three fungus species (C. albicans, C. neoformans—H99—and acapsular mutant of C. neoformans—Cap67), with control by AcM anti-GXM 18B7 (25 μg/ml) only to H99. In the first assay (FIGS. 14A and B), cellular suspensions were washed to remove non-adhering cells to substrate. […] In second assay (FIGS. 14C and D), cellular suspensions were not washed, and again AcM inhibited biofilm development (p<0.05) compared to cell not treated with antibodies. In both assays, cell growth was observed.

Candida albicans = assay: Immunofluorescence of AcM anti-chitooligomer against intact cells; format: binding; conditions: AcM 25 μg/mL, 1 h at 37° C.; anti-IgM Alexa 568; calcofluor
Method: Fungal cells (10^6 cells)) were fastened (cacodylate paraformolaldehyde buffer 4%; 30 min) and blocked later (PBS/BSA 1%; 1 hour). Then, they were incubated with AcM anti-chitooligomer(25 μg/mL; 1 h at 37° C.) After washing with PBS, cells were incubated with mouse anti-IgM antibody conjugated at Alexa 568 (SIGMA; 1:1000). After PBS washing, cells were incubated with 25 μM of white calcofluor (Invitrogen) and washed again. Cellular suspensions were assembled in glass blades and assessed under microscope Olympus AX70, coupled to camera system (QImaging Retiga 1300) and assessed in QCapture suite V2.46 software.
From reliable and ELISA and Dot Blot trials, biological activity validation tests. Thus, AcMs were used through immunofluorescence (IF), using the pathogen Candida albicans as template. AcMs were efficient at fungal cellular wall labeling, showing the same profile whenever standard marker is used (lectin), data not provided.

C. albicans = assay: Dot Blot against intact cells using PL; format: binding, Candida albicans; conditions: AcM 25 μg/ml; cells in 5 μg/ml PL diluted in base 10 from 10^7 cell/ml; 3 independent experiments
Method: C. neoformans (H99) and Candida albicans in 10^7 cell/ml density until 10 cells/ml were suspended in poly-L-Lysine solution (5 μg/ml in PBS) and 10 μl were loaded in nitrocellulose membranes. Then, the same steps for ELISA were followed, however, 25 μg/ml concentration of AcM anti-chitooligomers. Membrane was cut and deposited in 96-well plates, to which 50 μl TMB was added and incubated for 30 minutes at 37° C. Volume was removed and transferred to a new plate, to which stop reaction was added with HCl 1 N and read with spectrophotometer at 450 nm.
The principle used in this trial was the same of ELISA and was based on the load presented by fungi. As nitrocellulose membrane has negative load, PL was used to check positive load to fungus, and consequently have bond to membrane.
As provided in FIG. 11, it was initially diluted in 5 μg/ml of PL at 10^7 cell/ml concentration and diluted in base 10. In this trial, it was evidenced that AcM HC6/DD11 was capable to bond to C. albicans up to 10^4 cell/ml order, which counters C. neoformans, that was identified to 10^6 cell/ml order. 3 independent experiments were performed to each trial. Example 16.7—Immunofluorescence

B1: HC6/DD11: murine IgM monoclonal antibody against chitooligomers (chitotriose); VH SEQ ID NO: 15, VL SEQ ID NO: 16 (antibody, listed as Mus musculus, V domains shown)
VH: STGQVKLEESGGGLVQPGGSRKLSCAASGFTFSDYGMAWVRQAPGKGPEWVAFISNLAYSIYYADTVTGRFTISRENAKNTLYLEMSSLRSEDTAMYYCARDYYGSSYWYFDVWGAGTTVTAPC
VL: ATNSCISRGEVTITCSASSSVSYMHWFQQKPGTSPKLWIYSTSNLASGVPARFSGSGSGTSYSLTISRMEAEDAATYYCQQRSSYPLTFGAGTKLELKRADAAPTVSLET
- ELISA signal in cell saturation curve (C. neoformans (H99)): slightly more sensitive
- biofilm development (XTT reduction) ([1]; non-washed cells): reduced biofilm development significantly
- biofilm development (XTT reduction) ([1]; washed cells): reduced biofilm development significantly
- fungal cellular wall labeling by immunofluorescence (Candida albicans): characteristic polar label
- cell density down to which AcM was capable to bond (Dot Blot) (C. albicans): 10^4 cell/ml
